Test results: patent US12325866B2, “Systems and methods for growing cells in vitro” (Yissum Research Development Company of the Hebrew …, priority 2016, dated 2025)

Assays:
[1] = test system: primary chicken embryonic fibroblasts (CEF); assay: Proliferation of primary CEF in serum-free media / with supplements; format: cell-based; conditions: serum-free medium, or minimal medium plus supplement (EGF 5 ng/ml, PGE2 0.01 μM, GH 10 ng/ml)
Method: The CSIFs readily grow on tissue culture plastic in DMEM/F12 medium supplemented with 15% FBS, and 2 mM of […] (FIG. 2D). There are several serum-free medium formulations for the growth of human and mouse fibroblasts, including PCS-201-040 (ATCC) and […] To develop a serum-free medium that supports the culture of CEF and CS IF, the present inventor formulated a minimal medium composed of DMEM/F12 supplemented with 0.1 μM dexamethasone, 10 μg/ml insulin, 5.5 μg/ml transferrin, and 5 ng/ml selenium (ITS), 12 μM linoleic and 12 μM oleic acids, and 2 mM of […]. Cells were plated in FBS containing medium, and transferred to minimal medium after overnight attachment. Basal medium was supplemented with growth factors and hormones showing that while heparin and T3 had little effect of CSIF growth (data not shown), the addition of basic Fibroblast Growth Factor (bFGF, 10 ng/ml) was essential (FIGS. 3C and 3F), showing 20±2 hours doubling time (data not shown).

[2] = test system: CSIF; assay: Serum-free medium development: sulforhodamine B stain and protein content after 72 hours; format: cell-based, chicken; conditions: supplement added to minimal serum-free medium; bFGF 10 ng/ml, EGF 5 ng/ml, PGE2 0.01 μM, GH 10 ng/ml
Method: FIGS. 3A-F depict the development and identification of serum-free medium for CSIF propagation. Shown are sulforhodamine B stain (FIGS. 3A-E) and protein content quantification (FIG. 3F) following 72 hours of culture with 15% serum (“FBS”), minimal serum-free medium (MIN) alone (FIG. 3B) or with 10 ng/ml basic Fibroblast Growth Factor (bFGF, FIG. 3C), 5 ng/ml Epidermal Growth Factor (EGF, FIG. 3D), 0.01 μM Prostaglandin E2 (PGE2, FIG. 3E), or 10 ng/ml Growth Hormone. Serum-free medium (SFM) contained MIN medium supplemented with bFGF (10 ng/ml), EGF (5 ng/ml), and PGE2 ([…]).
To develop a serum-free medium that supports the culture of CEF and CS IF, the present inventor formulated a minimal medium composed of DMEM/F12 supplemented with 0.1 μM dexamethasone, 10 μg/ml insulin, 5.5 μg/ml transferrin, and 5 ng/ml selenium (ITS), 12 μM linoleic and 12 μM oleic acids, and 2 mM of L-Analyl-L-Glutamine. Cells were plated in FBS containing medium, and transferred to minimal medium after overnight attachment. Basal medium was supplemented with growth factors and hormones showing that while heparin and T3 had little effect of CSIF growth (data not shown), the addition of basic Fibroblast Growth Factor (bFGF, 10 ng/ml) was essential (FIGS. 3C and 3F), showing 20±2 hours doubling time (data not shown).

B1: EGF: epidermal growth factor (protein, UniProt P01133 23-1207, looked up)
Pro-epidermal growth factor: PQHWSCPEGTLAGNGNSTCVGPAPFLIFSHGNSIFRIDTEGTNYEQLVVDAGVSVIMDFHYNEKRIYWVDLERQLLQRVFLNGSRQERVCNIEKNVSGMAINWINEEVIWSNQQEGIITVTDMKGNNSHILLSALKYPANVAVDPVERFIFWSSEVAGSLYRADLDGVGVKALLETSEKITAVSLDVLDKRLFWIQYNREGSNSLICSCDYDGGSVHISKHPTQHNLFAMSLFGDRIFYSTWKMKTIWIANKHTGKDMVRINLHSSFVPLGELKVVHPLAQPKAEDDTWEPEQKLCKLRKGNCSSTVCGQDLQSHLCMCAEGYALSRDRKYCEDVNECAFWNHGCTLGCKNTPGSYYCTCPVGFVLLPDGKRCHQLVSCPRNVSECSHDCVLTSEGPLCFCPEGSVLERDGKTCSGCSSPDNGGCSQLCVPLSPVSWECDCFPGYDLQLDEKSCAASGPQPFLLFANSQDIRHMHFDGTDYGTLLSQQMGMVYALDHDPVENKIYFAHTALKWIERANMDGSQRERLIEEGVDVPEGLAVDWIGRRFYWTDRGKSLIGRSDLNGKRSKIITKENISQPRGIAVHPMAKRLFWTDTGINPRIESSSLQGLGRLVIASSDLIWPSGITIDFLTDKLYWCDAKQSVIEMANLDGSKRRRLTQNDVGHPFAVAVFEDYVWFSDWAMPSVMRVNKRTGKDRVRLQGSMLKPSSLVVVHPLAKPGADPCLYQNGGCEHICKKRLGTAWCSCREGFMKASDGKTCLALDGHQLLAGGEVDLKNQVTPLDILSKTRVSEDNITESQHMLVAEIMVSDQDDCAPVGCSMYARCISEGEDATCQCLKGFAGDGKLCSDIDECEMGVPVCPPASSKCINTEGGYVCRCSEGYQGDGIHCLDIDECQLGEHSCGENASCTNTEGGYTCMCAGRLSEPGLICPDSTPPPHLREDDHHYSVRNSDSECPLSHDGYCLHDGVCMYIEALDKYACNCVVGYIGERCQYRDLKWWELRHAGHGQQQKVIVVAVCVVVLVMLLLLSLWGAHYYRTQKLLSKNPKNPYEESSRDVRSRRPADTEDGMSSCPQPWFVVIKEHQDLKNGGQPVAGEDGQAADGSMQPTSWRQEPQLCGMGTEQGCWIPVSSDKGSCPQVMERSFHMPSYGTQTLEGGVEKPHSLLSANPLWQQRALDPPHQMELTQ
modifications: Pro-epidermal growth factor
Proliferation of primary CEF [1]: supported the proliferation | Effect on CSIF growth / proliferation [2]: supported the proliferation
